Earlier results on one substance are cited in PMC9523730.

The target in the data set is 14-3-3ζ (Homo sapiens) (UniProt P63104). Briefly: various biophysical approaches.

As for 14-3-3ζ (from UniProt P63104), the Kd (as a rule, the equilibrium constant for the complex coming apart) was 5 nM.
